Data taken from patent US20050059089A1 (priority 2003, published 2005).
Values belong to the molecule of their own block, whether it stands above or below them. No end group written: not given here.

Experiments:
GPCR142 [1] = target: T1, GPCR142 (Homo sapiens, UniProt Q8TDU9, L329S); experiment: Radioligand binding assay with 125I-relaxin3 (saturation and competition), COS-7 cell membranes; design: The complete coding region of human GPCR142 was PCR-amplified from human genomic DNA; expressed in transfected cells; details: competition binding, COS-7 membranes
T1 sequence (Q8TDU9 whole entry L329S): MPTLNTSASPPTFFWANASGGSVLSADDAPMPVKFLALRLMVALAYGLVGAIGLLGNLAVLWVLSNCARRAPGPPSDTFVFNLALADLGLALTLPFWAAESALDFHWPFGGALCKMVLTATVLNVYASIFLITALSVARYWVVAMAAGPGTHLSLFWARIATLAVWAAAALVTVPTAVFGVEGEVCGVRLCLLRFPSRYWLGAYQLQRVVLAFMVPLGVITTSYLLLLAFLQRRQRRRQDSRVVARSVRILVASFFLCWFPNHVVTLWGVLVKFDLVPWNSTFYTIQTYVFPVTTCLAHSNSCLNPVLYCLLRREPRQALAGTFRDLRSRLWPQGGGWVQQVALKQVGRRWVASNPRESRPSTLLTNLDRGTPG
Experimental: (§1) The binding mixtures were incubated at room temperature for 1 h and then were filtered through 96-well GFC plates (Packard) and washed with ice-cold washing buffer: 50 mM Tris-HCl, pH 7.4. Fifty microliters of Microscint-40 were added to each well and the plates were counted in a Topcounter NTX (Packard). The radioligand binding results were analyzed using GraphPad PRISM software.
The binding assays were performed at room temperature for an incubation time of one hour. The binding mixtures were then filtered through GFC filters pre-saturated with 0.3 polyethylenimine (Sigma) and washed with cold binding buffer. The bound radioligand was counted in a top counter (TopCount/NTX, Packard) with Microscint-40. The results were analyzed by Prism 3.0 software.

GPCR142 [2] = target: T1, GPCR142; experiment: Inhibition of forskolin-stimulated cAMP (CRE-β-galactosidase) in SK-N-MC cells; format: cell-based; design: The complete coding region of human GPCR142 was PCR-amplified from human genomic DNA; expressed in transfected cells; HEK293 co-transfected with Gqi5 (Ca2+); details: SK-N-MC cells stably expressing GPCR142
Experimental: SK-N-MC cells stably expressing GPCR142 were established by transfection of GPCR142 expressing plasmids into SK-N-MC cells harboring a β-galactosidase gene under control of multiple cAMP responsive elements. The stable transfectants were selected by culturing the transfected cells under G418 selection (400 mg/L). The receptor expressing cells were seeded in 96-well plates at a cell density of 30,000 cells/well. After 24 h, cells were stimulated with forskolin or different peptides. Cells were cultured for an additional 6 h and the intracellular β-gal activity, which represents the intracellular cAMP accumulation, was measured as described by Liu et al. (2000), Mol. Pharmacol., 59, 420-426.

GPCR142 [3] = target: T1, GPCR142; experiment: Ca2+ mobilization assay (FLIPR), HEK293 cells co-expressing GPCR142 and Gα16; format: cell-based; design: The complete coding region of human GPCR142 was PCR-amplified from human genomic DNA; expressed in transfected cells; HEK293 co-transfected with Gα16 (Ca2+)
Experimental: Human embryonic kidney (HEK) 293 cells were transfected with GPCR135,.GPCR142 or co-transfected with Gqi5 (Conklin et al. (1993), Nature 363, 274-280) or Gα16 (Amatruda et al. (1991), Proc. Natl. Acad. Sci. U.S.A. 88, 5587-5591) expressing plasmids using LipofectAmine. Two days after transfection, cells were detached with PBS plus 10 mM EDTA. The detached cells were washed with DMEM-F12 medium (without phenol red, Invitrogen) and seeded in black poly-D lysine coated 96-well plates (BD Biosciences, San Jose, Calif.) at a cell density of 50,000 cell/well.

GPCR142 [4] = target: T1, GPCR142; experiment: GTPγS binding assay, GPCR142 expressing cell membranes; format: biochemical; design: The complete coding region of human GPCR142 was PCR-amplified from human genomic DNA; expressed in transfected cells; CHO membranes (GTPγS); HEK293 co-transfected with Gα16 (Ca2+)
Experimental: The GPCR142 expression vector described above was transfected into CHO cells using Lipofectamine (Invitrogen) according to the manufacturer's instructions. Two days after transfection, the cells were harvested and the cell membranes were prepared by homogenizing the cells in cold 50 mM Tris-HCl, 5 mM EDTA, pH 7.5 followed by centrifugation at 4° C. 1000 g for 10 min. The supernatant was centrifuged at 4° C. 20,000 g for 30 min and the pellet was re-suspended in GTPγS binding buffer: 50 mM Tris-HCl, pH 7.4, 10 mM MgCl2, 1 mM EDTA, pH 8.0, and 100 mM NaCl using a polytron tissue homogenizer. Protease inhibitors were added to the buffer at concentrations of 1 mM PMSF, 10 μg/ml of pepstatin A, 10 μg/ml of leupeptin. Cell membranes and different concentrations of ligands were added to 96-well plates and incubated at room temperature for 20 min. ^35S-GTPγS (NEN) was then added to each well at a final concentration of […] in a final volume of 200 μL. The reactions were allowed to proceed at room temperature for 1 h, and then the mixtures were filtered though a 96-well GFC filter plate (Packard) and washed with cold washing buffer: 50 mM Tris-HCl, pH 7.4, 10 mM MgCl2. Fifty microliters of Microscint-40 (Packard) was added to each well and the plate was counted on a top counter (TopCount NTX, Packard).

human GPCR142 [5] = target: T2, human GPCR142 (human, UniProt Q8TDU9 1-374); experiment: cell-based or functional assay
T2 sequence (Q8TDU9 whole entry L329S): as above

human GPCR142 [6] = target: T2, human GPCR142; experiment: competition binding with ^125I-relaxin3, membranes of COS-7 cells transiently expressing GPCR142
Experimental: as §1, with “(Packard).” for “(Packard). The radioligand binding results were analyzed using GraphPad PRISM software.”

human GPCR142 [7] = target: T2, human GPCR142; experiment: competition binding with ^125I-relaxin3, membranes of COS-7 cells expressing GPCR142
Experimental: as §1, with “(Packard).” for “(Packard). The radioligand binding results were analyzed using GraphPad PRISM software.”

human GPCR142 [8] = target: T2, human GPCR142; experiment: saturation radioligand binding, membranes of COS-7 cells transiently expressing GPCR142
Experimental: as §1, with “(Packard).” for “(Packard). The radioligand binding results were analyzed using GraphPad PRISM software.”

- displacement of 125I-relaxin3 binding to GPCR142 (GPCR142 [1]): displaced
- stimulation of 35S-GTPγS binding (agonist activity) (GPCR142 [4]): stimulate
Molecule: CC[C@H](C)[C@@H]1NC(=O)[C@H](Cc2ccccc2)NC(=O)[C@H](CCC(=O)O)NC(=O)[C@H](CCCNC(=N)N)NC(=O)CNC(=O)[C@@H](NC(=O)[C@H](CC(C)C)NC(=O)[C@H](CCCNC(=N)N)NC(=O)[C@@H](NC(=O)CNC(=O)[C@H](Cc2ccc(O)cc2)NC(=O)[C@@H]2CCCN2C(=O)[C@H](C)NC(=O)[C@H](C)NC(=O)[C@@H](N)CCCNC(=N)N)C(C)C)CSSC[C@@H](C(=O)NCC(=O)NCC(=O)N[C@@H](CO)C(=O)N[C@@H](CCCNC(=N)N)C(=O)N[C@@H](Cc2c[nH]c3ccccc23)C(=O)O)NC(=O)[C@H]([C@@H](C)O)NC(=O)[C@H](Cc2ccccc2)NC(=O)[C@H]([C@@H](C)CC)NC(=O)[C@H](C(C)C)NC(=O)[C@H](C)NC(=O)[C@H](CCCNC(=N)N)NC1=O [relaxin3 B-chain, reference compound]
- inhibition of forskolin induced β-galactosidase expression (GPCR142 [2]): showed ligand activity, albeit with a significantly lower potency

- EC50, GTPγS binding assay (human GPCR142 [5]): ~100 nM
- Ki (human GPCR142 [6]): 85 nM
B1: relaxin3 B-chain (peptide, UniProt Q8WXF3 26-52, looked up)
peptide: RAAPYGVRLCGREFIRAVIFTCGGSRW
modifications: not fully specified (bridges); ends and bridges not checked; also: oxidized
notes: domain: B-chain; Bought peptide; also called oxidized relaxin-3 B-chain peptide

- binding result (human GPCR142 [7]): no binding
B5: Human INSL4 (ligand)
chain 1: AELRGCGPRFGKHLLSYCPMPEKTFTTTPGGWL
chain 2: SGRHRFDPFCCEVICDDGTSVKLCT

Continued, molecule first:

Molecule: INSL5: Human INSL5 (SEQ ID NO: 5), recombinantly expressed in COS-7 cells, relaxin/insulin superfamily peptide (KESVRLCGLEYIRTVIYICASSRWQDLQTLCCTDGCSMTDLSALC; ends and bridges not checked; cysteine pairing not given here; listed as Homo sapiens)
- displacement of 125I-relaxin3 binding to GPCR142 (GPCR142 [1]): specifically displaced
- inhibition of forskolin induced β-galactosidase expression (GPCR142 [2]): dose-dependently inhibits
- stimulation of Ca2+ mobilization (GPCR142 [3]): stimulated Ca2+ mobilization
- stimulation of 35S-GTPγS binding (agonist activity) (GPCR142 [4]): stimulated GTPγS binding

B2: relaxin3 A-chain (peptide, UniProt Q8WXF3 119-142, looked up)
peptide: DVLAGLSSSCCKWGCSKSEISSLC
modifications: ends and bridges not checked; also: oxidized
notes: domain: A-chain; Bought peptide; also called oxidized relaxin-3 A-chain peptide
- binding result (human GPCR142 [7]): no binding

B3: Porcine relaxin (ligand)
chain 1: QSTNDFIKACGRELVRLWVEICGSVSWGRTAL
chain 2: RMTLSEKCCQVGCIRKDIARLC
notes: The results paragraph prints only 'relaxin'
- binding result (human GPCR142 [7]): no binding

B4: ^125I-relaxin3 (ligand)
chain 1: RAAPYGVRLCGREFIRAVIFTCGGSRW
chain 2: DVLAGLSSSCCKWGCSKSEISSLC
modifications: ends and bridges not checked; also: 125I label, residue not given here
notes: also called radioligand; tracer
- Kd (human GPCR142 [8]): 1.9 nM
